Experimental findings from patent US20200040082A1 (Seagen, published 2020) are described below.

Assay [1] concerns the target T1, human TIGIT (T-cell immunoreceptor with Ig and ITIM domains) (human, UniProt Q495A1 22-244).
T1 construct: also called hTIGIT
T1 sequence: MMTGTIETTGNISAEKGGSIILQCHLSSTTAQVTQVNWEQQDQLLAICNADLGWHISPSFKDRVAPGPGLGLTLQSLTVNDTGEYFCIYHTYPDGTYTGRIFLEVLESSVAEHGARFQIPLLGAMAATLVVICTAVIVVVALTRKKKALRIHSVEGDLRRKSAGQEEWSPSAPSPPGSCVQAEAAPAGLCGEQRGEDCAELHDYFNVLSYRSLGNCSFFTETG
As to the kind of experiment: competition flow cytometry against hCD112-Fc-AlexaFluor647 on 293-hTIGIT cells. A general note: Flow cytometry measures light scatter and fluorescence of single cells or particles in a stream.

Assay [2] concerns the target T1, human TIGIT (T-cell immunoreceptor with …). In words: competition flow cytometry against 1 ug/mL hCD155-Fc-AlexaFluor647 on 293-hTIGIT cells.
Protocol: Samples were analyzed on a CytoFLEX flow cytometer. Median fluorescence intensity of the FSC/SSC gated population was determined for each antibody concentration. Percent blockade was calculated relative to the MFI of the no antibody control. NonLinear regression of Log(X) transformed data was performed in GraphPad Prism 6.
The target is the same in assay [3]. In words: flow cytometry titration on HEK 293 cells expressing human TIGIT.
The target of assay [4] is T2, cynomolgus monkey TIGIT (cynomolgus monkey).
T2 construct: On HEK 293 cells (lentiviral transduction) and on cynomolgus peripheral blood T cells; also called cyno TIGIT
T2 sequence (chain, as listed by the source limits assumed): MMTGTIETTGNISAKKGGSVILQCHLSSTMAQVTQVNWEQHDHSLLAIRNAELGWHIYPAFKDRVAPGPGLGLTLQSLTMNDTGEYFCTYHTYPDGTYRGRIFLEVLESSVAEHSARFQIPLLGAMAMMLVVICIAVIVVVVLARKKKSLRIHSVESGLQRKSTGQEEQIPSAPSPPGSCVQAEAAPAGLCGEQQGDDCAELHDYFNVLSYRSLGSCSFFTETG
In words: flow cytometry, MFI on cyno TIGIT HEK 293 cells over parental HEK 293 cells.
Protocol: (§1) HEK 293 cells were engineered to stably express high levels of human, mouse or cynomolgus monkey TIGIT by lentiviral transduction. […] Cells were then washed twice with wash buffer and incubated with anti-human IgG conjugated to PE for 15 minutes on ice. Cells were then washed twice with wash buffer and analyzed by flow cytometry on a FACS Canto II instrument (BD Biosciences). Fold over background (FOB) was calculated as the median fluorescence intensity (MFI) of the anti-TIGIT clone bound to target-positive cells divided by the MFI of the anti-TIGIT clone bound to target-negative cells.

The target of assay [5] is T1, human TIGIT (T-cell immunoreceptor with …). In words: flow cytometry, MFI on human TIGIT HEK 293 cells over parental HEK 293 cells.
Protocol: as §1
For assay [6], the target named is T3, discontinuous epitope mimic CILQ2HLSSTTAQVTQCI2NADLGWHISPSFKC (Cys-acetamidomethyl (Cys-acm, printed as '2') at positions 5 and 19; Cys at positions 1, 17 and 33 used for the T3 CLIPS scaffold (as for Set 8)).
T3 peptide: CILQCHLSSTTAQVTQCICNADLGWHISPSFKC
As to the kind of experiment: Pepscan-based peptide array ELISA, discontinuous epitope mimics.
Protocol: (§2) The binding of antibody to each of the synthesized peptides was tested in a pepscan-based ELISA. The peptide arrays were incubated with primary antibody solution (overnight at 4° C.). After washing, the peptide arrays were incubated with a 1/1000 dilution of a goat anti-human HRP conjugate (Southern Biotech) for one hour at 25° C. […] After one hour, the color development was measured. The color development was quantified with a charge coupled device (CCD)—camera and an image processing system.

In assay [7] the target is T4, discontinuous epitope mimic CKDRVAPGPGLGLTLQCI2NADLGWHISPSFKC (Cys-acetamidomethyl (Cys-acm, printed as '2') at position 19; Cys at positions 1, 17 and 33 used for the T3 CLIPS scaffold (as for Set 8)).
T4 peptide: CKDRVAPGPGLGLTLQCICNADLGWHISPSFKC
The assay is described as above.
Protocol: as §2

Where a chain is given by its changes, count along the chain named.

As usually defined, the EC50 is the midpoint of the concentration-response curve.

B1: Clone 13 (antibody, human IgG1, V domains shown)
VH: QVQLVQSGAEVKKPGSSVKVSCKASGGTFSSYAISWVRQAPGQGLEWMGSIIPIFGTANYAQKFQGRVTITADESTSTAYMELSSLRSEDTAVYYCARGPSEVGAILGYVWFDPWGQGTLVTVSS
VL: not shown
notes: Fully human IgG1 ('c13 hIgG1'); also called anti-TIGIT clone 13; c13 hIgG1
Turning to B1, the “IC50 (read off the curve)” value in assay [1] was roughly 0.09 µg/mL; in assay [2] it was roughly 0.2 µg/mL.

B2: mouse IgG2a chimera of anti-TIGIT clone 13 (antibody, V domains shown)
VH: B1 VH
VL: not shown
notes: also called c13 mIgG2a
Turning to B2, in assay [3], the EC50 was 0.04 µg/mL. The “IC50 (read off the curve)” value in assay [1] was roughly 0.06 µg/mL.

B3: Clone 13D (antibody, V domains shown)
VH: B1 VH with S30L, Y32S, I54Y, T57K, G104K, A105G
VL: not shown
notes: IgG
B3: the “FOB (Fold Over Background)” value in assay [4] is 245 fold; in assay [5] it was 190 fold.

B4: Clone 25 (antibody, V domains shown)
VH: QVQLVQSGAEVKKPGASVKVSCKASGYTFTSYAISWVRQAPGQGLEWMGWISAYNGNTNYAQKLQGRVTMTTDTSTSTAYMELRSLRSDDTAVYYCARDLSSFWSGDVLGAFDIWGQGTMVTVSS
VL: DIQMTQSPSSLSASVGDRVTITCRASQSISSYLNWYQQKPGKAPKLLIYAASSLQSGVPSRFSGSGSGTDFTLTISSLQPEDFATYYCQQSVPPRTFGGGTKVEIK
notes: Fully human IgG from a yeast presentation system; also called anti-TIGIT clone 25
As to B4, the binding result in assay [6] and in assay [7] was “binds” throughout.
